Changes are numbered by the printed parent chain. Like-named read-outs stand apart in the source and are kept apart here.
Assays:
[1] = target: humTFPI K1K2 (human); assay: cell-based or functional assay
[2] = target: T1, rabTFPI K1K2 (rabbit, limits assumed); assay: ELISA, biotinylated TFPI on streptavidin plate
T1 construct: also called Rabbit TFPI K1K2; rabbit TFPI
T1 chain: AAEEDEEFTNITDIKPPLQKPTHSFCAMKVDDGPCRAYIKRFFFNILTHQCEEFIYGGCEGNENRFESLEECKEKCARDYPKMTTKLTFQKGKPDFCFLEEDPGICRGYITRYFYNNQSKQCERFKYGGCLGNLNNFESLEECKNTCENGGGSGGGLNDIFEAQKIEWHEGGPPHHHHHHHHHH
Procedure: (§1) Purified anti-TFPI antibodies were diluted to 1 ug/ml in ELISA assay buffer, then serially diluted three-fold to generate an eight-point dilution series. The diluted antibodies were added at a volume of 100 uL per well. The plates were incubated at room temperature for 2 hours. After washing the plates with PBS/0.05% Tween 20, the plates were incubated with a goat anti-mouse IgG-Fc polyclonal antibody conjugated with horseradish peroxidase (Pierce) at 1:10,000 dilution. After 1 hour of incubation, bound antibody was detected with the addition of a TMB substrate solution. Absorbances were read a 450 nm, and the data were analyzed by GraphPad Prism software.

[3] = target: T2, humTFPI K1K2 (human); assay: ELISA, biotinylated TFPI on streptavidin plate
T2 construct: Biotinylated on the AviTag for ELISA; also called Human TFPIα K1K2; humTFPI K1K2-aviHis10
Procedure: as §1

[4] = target: T1, rabTFPI K1K2; assay: SPR, antibody ligand, TFPI analyte
[5] = target: T2, humTFPI K1K2; assay: SPR, antibody ligand, TFPI analyte
[6] = target: T2, humTFPI K1K2; assay: cell-based or functional assay; remark: listed apart in the source
[7] = target: T3, murTFPI K1K2 (mouse); assay: SPR, antibody ligand, TFPI analyte
T3 construct: also called Mouse TFPI K1K2; mouse TFPI
T3 chain: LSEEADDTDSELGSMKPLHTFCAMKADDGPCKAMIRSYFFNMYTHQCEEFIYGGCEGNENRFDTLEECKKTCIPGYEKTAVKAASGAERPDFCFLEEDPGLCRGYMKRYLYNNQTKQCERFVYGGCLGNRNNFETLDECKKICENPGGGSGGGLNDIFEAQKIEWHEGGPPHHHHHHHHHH

[8] = target: T2, humTFPI K1K2; assay: SPR, antibody ligand, TFPI analyte; remark: listed apart in the source
[9] = target: T2, humTFPI K1K2; assay: cell-based or functional assay; remark: listed apart in the source
[10] = target: T2, humTFPI K1K2; assay: SPR, antibody ligand, TFPI analyte; remark: listed apart in the source
Procedure: The flow cells were activated by injecting a 1:1 mixture of 400 mM 1-Ethyl-3-(3-dimethylaminopropyl) carbodiimide hydrochloride (EDC) and N-hydroxysuccinimide (NHS) for 7 minutes at a flow rate of 10 μl/minute. Anti-human IgG antibody was diluted to 25 μg/ml in 10 mM Sodium Acetate pH 5.0 and injected over all flow cells for 7 minutes at 10 ul/minute. All flow cells were blocked with 1 M Ethanolamine-HCL (ETH) for 7 minutes at 10 μl/minute. Final immobilization level of the capture antibody was approximately 10,000 resonance units (RU). The running buffer for immobilization and kinetics was 10 mM HEPES pH 7.4, 150 mM NaCl, 3 mM EDTA, 0.05% (v/v) Tween-20 (HBS-EP+). […] Flow cell 1 was used as a reference surface. […] At the end of each cycle, the entire anti-IgG surface was regenerated by a 60 second pulse of 3 M MgCl2. Kinetic assays were conducted at 25° C. at a collection rate of 10 Hz on a BIAcore T200 instrument (GE Healthcare). Rate constants and affinities were determined by fitting the data to a 1:1 model in BIAcore T200 Evaluation software version 1.0 (GE).

[11] = target: T1, rabTFPI K1K2; assay: ELISA, biotinylated TFPI on streptavidin plate
[12] = target: T2, humTFPI K1K2; assay: ELISA, biotinylated TFPI on streptavidin plate; remark: listed apart in the source

B1: 4D8.b1 (antibody, mouse IgG1, kappa)
light: DIVMTQSHKFMSTSVGDRVSITCKASQDVHTAVAWYQQKPGQSPRLLIYWASTRHTGVPDRFTGCGSGTDYTLTISSVQAEDLALYYCQQHYTTPYTFGGGTKLEMKADAAPTVSIFPPSSEQLTSGGASVVCFLNNFYPKDINVKWKIDGSERQNGVLNSWTDQDSKDSTYSMSSTLTLTKDEYERHNSYTCEATHKTSTSPIVKSFNRNEC
heavy: EVLLQQSGPELVKPGASVKIPCKASGYTFTDYNLDWVKQSHGKSLEWIGDINPINGATLYNQKFKGKATLTVDQSSSTAYMELRSLTSEDTAVYYCSIYYGDYDAMDYWGQGASVTVSSAKTTPPSVYPLAPGSAAQTNSMVTLGCLVKGYFPEPVTVTWNSGSLSSGVHTFPAVLQSDLYTLSSSVTVPSSTWPSETVTCNVAHPASSTKVDKKIVPRDCGCKPCICTVPEVSSVFIFPPKPKDVLTITLTPKVTCVVVDISKDDPEVQFSWFVDDVEVHTAQTQPREEQFNSTFRSVSELPIMHQDWLNGKEFKCRVNSAAFPAPIEKTISKTKGRPKAPQVYTIPPPKEQMAKDKVSLTCMITDFFPEDITVEWQWNGQPAENYKNTQPIMDTDGSYFVYSKLNVQKSNWEAGNTFTCSVLHEGLHNHHTEKSLSHSPGK
notes: Mouse monoclonal antibody purified from a hybridoma subclone; also called mouse 4d8.b1; TFPI 4D8
- FXa EC50 [1]: 5900 pM
- FXa-FVIIa EC50 [1]: 6670 pM
- EC50 [2]: 97.6 pM
- EC50 [3]: 95.9 pM
- Kd [4]: 630 pM
- koff [4]: 0.00126 s⁻¹
- kon [4]: 2.01e+06 M⁻¹ s⁻¹
- Kd [5]: 1190 pM
- koff [5]: 0.00114 s⁻¹
- kon [5]: 958000 M⁻¹ s⁻¹
- FXa EC50 [6]: 4150 pM
- FXa-FVIIa EC50 [6]: 3500 pM

B2: 7A4.D9 (antibody, mouse IgG1, kappa, V domains shown)
VH: EVQLQQSGPELVKPGASVKMSCKASGYTFTSYVMHWVKQKPGQGLEWIGYLNPYNDGTKYNEKFKGKASLISDKSSSTVYMELSSLTSEDSAVYYCATTLLYAMDYWGQGSSVTVSS
VL: DIVLTQSPASLAVSLGQRATISCRASKSVSTSGYTYMHWYQQKPGQPPKLLIYLASNLESGVPARFSGSGSGTDFTLNIHPVEEEDAAAYYCQHIRELPFTFGSGTKLEIKA
notes: Mouse hybridoma antibody; also called mouse 7A4.D9
- FXa EC50 [1]: 22300 pM
- FXa-FVIIa EC50 [1]: 9350 pM
- EC50 [2]: 88.7 pM
- EC50 [3]: 88.7 pM
- Kd [4]: 3550 pM
- koff [4]: 0.0188 s⁻¹
- kon [4]: 5.3e+06 M⁻¹ s⁻¹
- Kd [5]: 6220 pM
- koff [5]: 0.00921 s⁻¹
- kon [5]: 1.48e+06 M⁻¹ s⁻¹

B3: 6B7.c5 (antibody, mouse IgG1, kappa, V domains shown)
VH: EVLLQQSGPELVKPGSSVKIPCKASGYTFTDYTMDWVKQSHGKSLEWIGDINPSNGGSIYNRKFKGKATLTVDKSSSTAYMELRSLTSEDTAVYYCARMHYNYDGFPYWGQGTLVTVSA
VL: DIVMTQSHKFMSTSVGDRVSITCKASQDVITAVAWYQQKPGQSPKLLIYWASTRHTGVPVRFTGSGSGTDYTLTIISVQAEDLALYYCQQHYSTPYTFGGGTKLEIKA
notes: Mouse hybridoma antibody; also called mouse 6b7.c5
- FXa EC50 [1]: 13900 pM
- FXa-FVIIa EC50 [1]: 12100 pM
- EC50 [2]: 129 pM
- EC50 [3]: 121 pM
- Kd [4]: 4950 pM
- koff [4]: 0.00564 s⁻¹
- kon [4]: 1.14e+06 M⁻¹ s⁻¹
- Kd [5]: 6580 pM
- koff [5]: 0.00363 s⁻¹
- kon [5]: 552000 M⁻¹ s⁻¹

B4: TFPI-26 (antibody, human IgG1, lambda, V domains shown)
VH: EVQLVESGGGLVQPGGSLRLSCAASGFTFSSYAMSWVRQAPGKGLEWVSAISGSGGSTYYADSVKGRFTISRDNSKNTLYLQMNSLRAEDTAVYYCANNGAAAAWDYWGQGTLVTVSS
VL: QSVLTQPPSLSGAPGQRVTISCTGSSSNLGADYDVQWYQQLPGTAPKLLIFGNNNRPSGVPDRFSGSRSGTSASLAITGLQAEDEANYYCQSYDRSLSGSMVFGGGTKLTVLG
notes: Human IgG1-3M from phage display; also called mAb-TFPI-26
- Kd [7]: 3680 pM
- koff [7]: 0.00476 s⁻¹
- kon [7]: 1.29e+06 M⁻¹ s⁻¹
- Kd [8]: 5790 pM
- koff [8]: 0.00118 s⁻¹
- kon [8]: 205000 M⁻¹ s⁻¹
- FXa EC50 [9]: 12800 pM
- FXa-FVIIa EC50 [9]: 9600 pM

B5: 4D8-Vk1.0 × VH1.0 (antibody, human IgG1, kappa, V domains shown)
VH: EVQLVESGGGLVQPGGSLRLSCAASGYTFTDYNLDWVRQAPGKGLEWVADINPINGATLYNQKFKGRFTISRDNAKNSLYLQMNSLRAEDTAVYYCARYYGDYDAMDYWGQGTLVTVSS
VL: DIQMTQSPSSLSASVGDRVTITCKASQDVHTAVAWYQQKPGKAPKLLIYWASTRHTGVPSRFSGSGSGTDFTLTISSLQPEDFATYYCQQHYTTPYTFGQGTKLEIKR
notes: Humanized 4D8 variant
- Kd [10]: 6940 pM
- koff [10]: 0.00047 s⁻¹
- kon [10]: 67700 M⁻¹ s⁻¹
- EC50 [11]: 78.5 pM
- EC50 [12]: 77.2 pM

B6: 4D8-Vk1.1 × VH1.2 (antibody, human IgG1, kappa, V domains shown)
VH: B5 VH with A49G
VL: B5 VL with F71Y
notes: Humanized 4D8 variant
- Kd [10]: 627 pM
- koff [10]: 9.49e-05 s⁻¹
- kon [10]: 151000 M⁻¹ s⁻¹
- EC50 [11]: 78.3 pM
- EC50 [12]: 59 pM

B7: 4D8-Vk1.0 × VH1.1 (antibody, human IgG1, kappa, V domains shown)
VH: B5 VH with A49G, F68A, R72V, N74Q, L79A
VL: B5 VL
notes: Humanized 4D8 variant
- Kd [10]: 25400 pM
- koff [10]: 0.00154 s⁻¹
- kon [10]: 60600 M⁻¹ s⁻¹
- EC50 [11]: 70.5 pM
- EC50 [12]: 88.4 pM

B8: 4D8-Vk1.0 × VH1.4 (antibody, human IgG1, kappa, V domains shown)
VH: B5 VH with N74Q
VL: B5 VL
notes: Humanized 4D8 variant
- Kd [10]: 11100 pM
- koff [10]: 0.000835 s⁻¹
- kon [10]: 75500 M⁻¹ s⁻¹
- EC50 [11]: 42.6 pM
- EC50 [12]: 56 pM

B9: 4D8-Vk1.1 × VH1.1 (antibody, human IgG1, kappa, V domains shown)
VH: B5 VH with A49G, F68A, R72V, N74Q, L79A
VL: B5 VL with F71Y
notes: Humanized 4D8 variant
- Kd [10]: 832 pM
- koff [10]: 0.000161 s⁻¹
- kon [10]: 193000 M⁻¹ s⁻¹
- EC50 [11]: 78.8 pM
- EC50 [12]: 81.8 pM

B10: 4D8-Vk1.0 × VH1.2 (antibody, human IgG1, kappa, V domains shown)
VH: B5 VH with A49G
VL: B5 VL
notes: Humanized 4D8 variant
- Kd [10]: 695 pM
- koff [10]: 0.000165 s⁻¹
- kon [10]: 238000 M⁻¹ s⁻¹
- EC50 [11]: 42.2 pM
- EC50 [12]: 75.8 pM

B11: 4D8-Vk1.0 × VH1.3 (antibody, human IgG1, kappa, V domains shown)
VH: B5 VH with F68A
VL: B5 VL
notes: Humanized 4D8 variant
- Kd [10]: 7190 pM
- koff [10]: 0.000571 s⁻¹
- kon [10]: 79500 M⁻¹ s⁻¹
- EC50 [11]: 55.6 pM
- EC50 [12]: 82.2 pM

B12: 4D8-Vk1.1 × VH1.0 (antibody, human IgG1, kappa, V domains shown)
VH: B5 VH
VL: B5 VL with F71Y
notes: Humanized 4D8 variant
- EC50 [11]: 45.1 pM
- EC50 [12]: 42.9 pM

B13: 4D8-Vk1.1 × VH1.3 (antibody, human IgG1, kappa, V domains shown)
VH: B5 VH with F68A
VL: B5 VL with F71Y
notes: Humanized 4D8 variant
- Kd [10]: 823 pM
- koff [10]: 0.000131 s⁻¹
- kon [10]: 159000 M⁻¹ s⁻¹
- EC50 [11]: 51.1 pM
- EC50 [12]: 65.1 pM

B14: TFPI-3 (antibody, human IgG1, kappa, V domains shown)
VH: not shown
VL: AIQLTQSPSSLSASVGDRVTITCRASQGISSSLAWYQQKPGKAPKLLIYAASTLQSGVPSRFSGSGSGTDFTLTISSLQPEDFATYYCQQLDSYPLSFGQGTKLEIKR
notes: Human IgG1-3M from phage display; also called mAb-TFPI-3
- Kd [7]: 3810 pM
- koff [7]: 0.000824 s⁻¹
- kon [7]: 215000 M⁻¹ s⁻¹
- Kd [8]: 27000 pM
- koff [8]: 0.0017 s⁻¹
- kon [8]: 62500 M⁻¹ s⁻¹
- FXa EC50 [9]: 208000 pM
- FXa-FVIIa EC50 [9]: 37400 pM

— patent US20210101998A1 (Pfizer, published 2021)
